B1: HDV Ribozyme (parent)
chain: GGCCGGCAUGGUCCCAGCCUCCUCGCUGGCGCCGGCUGGGCAACAUUCCGAGGGGACCGUCCCCUCGGUAAUGGCGAAUGGGACCCA

The variants in this data set derive from B1. Briefly: self-cleavage, relative activity (ratio to wild type); higher = more cleavage; co-transcriptional.
Turning to G29U C48G, the self-cleavage amounted to 0.106. Under G29U C48A stands 0.117. The value for G29U G52C was 0.0268; that for G29U C41A was 0.0755; that for G29U U65C was 0.173. Regarding G29U U65G, the self-cleavage was 0.0755.

As to G29C G38A, the self-cleavage was 0. The value for G29U C49G was 0.133.

For the variant G29U G31C, the self-cleavage is 0.141. The value for G29U G50A was 0.104; that for G29U G50C was 0.153; that for G29U C75G was 0.116.

Consider G29U C75U, for which the self-cleavage was 0.0767. The value for G29U C75A was 0.0639; that for G29U G76U was 0.137. Under G29U G76C stands 0.12; under G29U C32U, 0.0665; under G29U C32A, 0.135. The value for G29C G67C was 0.104; that for G29C C63G was 0.0489. Regarding G29C C63U, the self-cleavage is 0. Under G29C C63A stands 0.117. The value for G29C C75A was 0.138; that for G29U A78C was 0; that for G29C A56G was 0.0615. The value for G29C C44A was 0.0554; that for G29C G68C was 0.0449. On to G29C U60G, for which the self-cleavage stood at 0.199. Under G29C U60C stands 0.0449. Under G29U C63G stands 0.0386; under G29U C63A, 0.106; under G29U G40A, 0.0955. The value for G29U G40C was 0.0583; that for G29C G81A was 0.0639; that for G29U G68C was 0.106.

As to G29U G73A, the self-cleavage was found to be 0.0898. Under G29U G55A stands 0.122; under G29U G55U, 0.0944; under G29U G55C, 0.0692. G29U U60C: the self-cleavage amounted to 0. Under G29C C48U stands 0.135. The value for G29U U37A was 0.0898; that for G29U U37C was 0.208.

In the case of G29C C84A, the self-cleavage was found to be 0.0831. The value for G29C C84G was 0.208; that for G29C C84U was 0.032. The value for G29C G55C was 0.0332.

Consider G29C C57A, for which the self-cleavage came out at 0.125.

For G29C C57G, the self-cleavage is 0.133. Under G29U C64G stands 0.0739. For G29U C64U, the self-cleavage amounted to 0.211. The value for G29U C64A was 0.0665; that for G29C A83C was 0.142; that for G29U A71C was 0.0302. The value for G29U A71G was 0.162. Under G29U A87U stands 0.111.

As for G29U A56G, the self-cleavage turned out to be 0.227. For G29U A56C, the self-cleavage was found to be 0.202. Under G29U C58U stands 0.0292; under G29U C58G, 0.0755. The value for G29U G53C was 0.125. The value for G29C C58A was 0.0755. G29C C61U: the self-cleavage was determined as 0.119. Under G29C C61G stands 0.032; under G29C G53A, 0.133.

Consider G29C G53U, for which the self-cleavage was 0.0723. Under G29C G53C stands 0.0462; under G29C C30G, 0.

As to G29C C30U, the self-cleavage was determined as 0.0415. Under G29C U79G stands 0. In the case of G29C U79A, the self-cleavage worked out at 0.147. The value for G29U G80A was 0.0934; that for G29C G73A was 0.0707. The value for G29C G73U was 0.0583. With G29C G73C, the self-cleavage amounted to 0.095.

Regarding G29C C33A, the self-cleavage amounted to 0.0959. With G29C G35A, the self-cleavage was found to be 0.104.

As to G29U A45G, the self-cleavage was 0.0923.

Take G29U A45C: the self-cleavage was determined as 0.113. The value for G29C G34C was 0.125. The value for G29C G34A was 0; that for G29C G34U was 0.181. In the case of G29U C57A, the self-cleavage stood at 0.151. The value for G29U C57G was 0.198; that for G29U C36G was 0.201; that for G29U C36U was 0.187. Consider G29U C36A, for which the self-cleavage is 0.187. Under G29C G82C stands 0.0739; under G29C C36G, 0.0536. Under G29C C36U stands 0.0755. The value for G29U U72C was 0.0811. As to G29U U72A, the self-cleavage was 0.218. Under G29C U46C stands 0.0755; under G29C C62G, 0.155. Under G29C G54U stands 0.204; under G29C G54A, 0.0773. Under G29C G39A stands 0.0583; under G29C G39C, 0.277; under G29U A70G, 0.0396. As for G29U A70C, the self-cleavage came out at 0.0791. The value for G29U A70U was 0.0923; that for G29C A78U was 0.0773. Under G29U C86G stands 0.0346; under G29U C86A, 0.169; under G29U A51U, 0.169. The value for G29U A51G was 0.0692. As to G29U G74C, the self-cleavage was 0.137. The value for G29U U46C was 0; that for G29U C61U was 0.122. Turning to G29C A70G, the self-cleavage came to 0.101. The value for G29C A70U was 0.0811; that for G29C A70C was 0.0536. The value for G29C U72G was 0.208; that for G29C U72A was 0; that for G29C G31A was 0.0875. The value for G29U G82C was 0.0545; that for G29U G82U was 0.095; that for G29C C32A was 0.0791. Consider G29C C32U, for which the self-cleavage was determined as 0.119. The value for G29C G80C was 0.0308; that for G29U G39U was 0.111; that for G29U G39A was 0. The value for G29U A83G was 0.0329; that for G29U A83C was 0.0692. The value for G29C U65C was 0.138; that for G29U U69C was 0.128. In the case of G29U U69G, the self-cleavage turned out to be 0.0615. Under G29C C49G stands 0; under G29C A77C, 0.0639. Under G29C G40U stands 0.0615. The value for G29U A42C was 0.125. Regarding G29C A87U, the self-cleavage came to 0.0378. The value for G29C A87G was 0.086; that for G29C A87C was 0.0932. Under G29C G59C stands 0.123; under G29U G35C, 0; under G29U A77U, 0.117.

Regarding G29U A77C, the self-cleavage came out at 0.13. Under G29C C86A stands 0.0519; under G29C C86U, 0.0739; under G29U C62G, 0.

In the case of G29U C62U, the self-cleavage stood at 0.0804. Consider G29U C62A, for which the self-cleavage came out at 0.0773. Under G29U G67C stands 0.136; under G29U G67U, 0.0817. Consider G29U G67A, for which the self-cleavage was found to be 0.12. Under G29C G52C stands 0.208; under G29U G59U, 0.147; under G29U G59C, 0.104. For the variant G29U U47A, the self-cleavage came out at 0.

Turning to G29U C84G, the self-cleavage was determined as 0.0277.

For G29U C84U, the self-cleavage stood at 0.0594.

Consider G29C C41U, for which the self-cleavage came out at 0.0297. The value for G29C C41G was 0.229.

With G29C C41A, the self-cleavage worked out at 0. The value for G29U C44A was 0.0297; that for G29U C44G was 0.0326; that for G29C A71C was 0.0536. In the case of G29U C33A, the self-cleavage stood at 0.0519. The value for G29U C33G was 0.0369; that for G29U C66A was 0.201. The value for G29U C66G was 0.0652; that for G29C G50U was 0. Under G29U G34A stands 0.111. G29U G34U: the self-cleavage was found to be 0.0519. The value for G29U G81A was 0.12; that for G29U G38U was 0.141.

(Values after the RNAGym collection of RNA variant scans (doi:10.7554/elife.80360).)
